In the supplement of paper PMC10126150:
± gives the standard deviation of the averaged measurements.

Tested on: ATP
Assay: switch fluorescence ratio, 500 uM ATP over buffer (Cy3 cluster intensity, sum of 5 cycles each) (fold (ratio)); higher = stronger signal-on switching upon ATP binding; sequences stand for … in TCGTCGGCAGCGTCAGATGTGTATAAGAGACAGTTTTTTTTTTTTTTTTTTTTTTTTT…TC
Conditions: aptamer strand: ATP DNA aptamer (quencher-CACCTGGGGGAGTATTGCGGAGGAAGG + anchor), 100 nM annealed; ATP concentration: 500 uM
How it was run: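 Per cluster, summed Cy3 intensity from the target cycles was divided by that from the buffer cycles to give the fluorescence ratio, then averaged per switch-domain sequence. Clusters outside 100-1000 RFU were excluded. The Cy3-labelled switching-strand clusters, on a modified Illumina MiSeq flow-cell, were annealed to 100 nM quencher-labelled ATP aptamer and imaged in selection buffer, then after 15 min with 500 uM ATP at 22 °C, for five cycles with NaOH stripping and re-annealing between them.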
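Further: ATP exposure 15 min at 22 °C before imaging.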

Sequence | switch fluorescence ratio
AAGGGCGTCA | 1.007 ± 0.0022
AAGGGCTTCA | 1.031 ± 0.0074
AAGGGGAAGT | 0.987 ± 0.038
AAGGGGACAC | 1.02 ± 0.014
AAGGGGAGTT | 0.998 ± 0.028
AAGGGGCGAT | 0.98751 ± 0.00098
AAGGGGCTTT | 1.01 ± 0.025
AAGGGGGACT | 1.04 ± 0.039
AAGGGGGCTA | 0.974 ± 0.027
AAGGGGGTGT | 0.965 ± 0.026
AAGGGGTAGG | 0.986 ± 0.036
AAGGGGTAGT | 0.997 ± 0.025
AAGGGGTCGT | 1 ± 0.025
AAGGGGTGAA | 0.989 ± 0.017
AAGGGGTGGG | 1.02 ± 0.032
AAGGGGTGTG | 0.998 ± 0.013
AAGGGTAAGC | 0.981 ± 0.029
AAGGGTATGC | 1 ± 0.035
AAGGGTCGAT | 0.968 ± 0.016
AAGGGTTAGG | 1.03 ± 0.023
AAGGTAATTT | 1.01 ± 0.03
AAGGTACAAG | 1.06 ± 0.047
AAGGTAGAAA | 1.03 ± 0.016
AAGGTAGAAT | 0.986 ± 0.013
AAGGTAGGGG | 0.986 ± 0.018
AAGGTATTAG | 0.9926 ± 0.0055

Sequence | switch fluorescence ratio
AAGGTCATTA | 0.97235 ± 0.00041
AAGGTCCTCT | 1 ± 0.004
AAGGTGAAGG | 1.02 ± 0.035
AAGGTGAGGT | 1.038 ± 0.006
AAGGTGTTGT | 1.04 ± 0.066
AAGGTTCGAA | 1.023 ± 0.0033
AAGGTTGAAC | 0.979 ± 0.011
AAGGTTGACC | 1.01 ± 0.021
AAGGTTGGGT | 0.984 ± 0.031
AAGGTTGGTG | 1 ± 0.034
AAGGTTTGCC | 0.965 ± 0.028
AAGTAAGCAG | 0.9636 ± 0.0011
AAGTAATGCG | 1.04 ± 0.034
AAGTAATTGT | 1.01 ± 0.015
AAGTACAAGG | 1.16 ± 0.1
AAGTACGTTA | 1.25 ± 0.029
AAGTAGAATT | 1.015 ± 0.0045
AAGTAGAGTG | 0.9834 ± 0.0013
AAGTAGGAAA | 0.999 ± 0.013
AAGTAGTTCG | 0.9823 ± 0.0037
AAGTAGTTTC | 1.01 ± 0.018
AAGTATAATG | 1.02 ± 0.054
AAGTATACTT | 0.986 ± 0.0049
AAGTATAGGT | 1.03 ± 0.017
AAGTATTAGA | 0.964 ± 0.011
AAGTCATTTA | 0.9881 ± 0.0096

Sequence | switch fluorescence ratio
AAGTCCCCGG | 1.18 ± 0.015
AAGTCCTGGA | 1.07 ± 0.13
AAGTCCTTCT | 1.07 ± 0.036
AAGTCGCATT | 1.03 ± 0.014
AAGTCGGTCT | 1.05 ± 0.1
AAGTCTACG | 1.04 ± 0.03
AAGTCTATGG | 1 ± 0.054
AAGTCTTAAG | 1.04 ± 0.013
AAGTGACAGC | 1 ± 0.031
AAGTGAGAAA | 0.983 ± 0.066
AAGTGAGTGC | 1 ± 0.059
AAGTGCCTGC | 1.015 ± 0.0056
AAGTGCTGGG | 0.993 ± 0.034
AAGTGGATAT | 0.999 ± 0.024
AAGTGGCTGG | 0.991 ± 0.038
AAGTGGTCTG | 0.983 ± 0.017
AAGTGGTTGG | 0.984 ± 0.024
AAGTTAAAGG | 1.03 ± 0.077
AAGTTAATCT | 0.988 ± 0.019
AAGTTACGTT | 1.04 ± 0.081
AAGTTACTAG | 1.07 ± 0.014
AAGTTACTGT | 1.126 ± 0.006
AAGTTAGACC | 1.026 ± 0.0041
AAGTTATGAG | 1.01 ± 0.046
AAGTTATGTT | 1.02 ± 0.028
AAGTTATTTT | 1.01 ± 0.015

Sequence | switch fluorescence ratio
AAGTTCATGG | 0.973 ± 0.012
AAGTTCCTTC | 1.05 ± 0.036
AAGTTCTTTA | 1.02 ± 0.022
AAGTTGAGTA | 0.986 ± 0.025
AAGTTGAGTT | 1.007 ± 0.0017
AAGTTGGGAA | 1.02 ± 0.042
AAGTTGGGAT | 0.972 ± 0.037
AAGTTGGGCC | 0.955 ± 0.044
AAGTTGTACG | 0.9989 ± 0.0032
AAGTTGTTCT | 0.997 ± 0.014
AAGTTTAGAA | 1 ± 0.012
AAGTTTAGTG | 0.976 ± 0.019
AAGTTTATTC | 0.967 ± 0.017
AAGTTTGAAG | 0.974 ± 0.01
AAGTTTGCAT | 0.978 ± 0.021
AAGTTTGTT | 0.983 ± 0.027
AAGTTTTAGG | 0.988 ± 0.027
AAGTTTTGAC | 1 ± 0.014
AAGTTTTGGA | 1.02 ± 0.025
AAGTTTTGTG | 0.9869 ± 0.0074
AAGTTTTTAT | 0.971 ± 0.019
AAGTTTTTTA | 0.993 ± 0.023
AAGTTTTTTG | 0.989 ± 0.013
AATAAAAAAC | 1.05 ± 0.078
AATAAAAGAG | 0.962 ± 0.018
AATAAATGCT | 0.99 ± 0.036

Sequence | switch fluorescence ratio
AATAAATTTA | 1 ± 0.016
AATAACGAAG | 1.04 ± 0.045
AATAAGAATA | 1 ± 0.037
AATAAGAGAC | 1.01 ± 0.043
AATAAGGCCG | 0.996 ± 0.076
AATAAGGGTG | 1.09 ± 0.14
AATAAGTGTT | 0.9792 ± 0.008
AATAATAGGC | 0.97 ± 0.012
AATAATCAGT | 1.05 ± 0.033
AATAATTTAA | 0.995 ± 0.021
AATACAATGG | 1.04 ± 0.011
AATACAGAGA | 1.01 ± 0.055
AATACATCGG | 0.999 ± 0.022
AATACATGTA | 0.984 ± 0.013
AATACGGGAG | 0.995 ± 0.017
AATACGGGGA | 1.02 ± 0.024
AATACGGGGT | 1.03 ± 0.033
AATACGTAGT | 1.04 ± 0.078
AATACGTTAG | 1.01 ± 0.027
AATAGACCTT | 1.13 ± 0.17
AATAGACTT | 0.999 ± 0.013
AATAGAGGTT | 0.965 ± 0.02
AATAGCAACT | 1.06 ± 0.029
AATAGCCGGG | 0.97 ± 0.066
AATAGGGGCA | 0.949 ± 0.017
AATAGGGGGA | 1.01 ± 0.034

Sequence | switch fluorescence ratio
AATAGGGGGG | 1.01 ± 0.024
AATAGGGTGT | 1.07 ± 0.046
AATATAGGCG | 1.04 ± 0.073
AATATATCCG | 1.03 ± 0.02
AATATATGT | 1.02 ± 0.023
AATATCCTAT | 1.01 ± 0.03
AATATCGCGG | 1.0264 ± 0.001
AATATCGGCA | 0.982 ± 0.027
AATATCGGGA | 0.983 ± 0.038
AATATCTCTG | 1.02 ± 0.03
AATATGAATT | 1.01 ± 0.016
AATATGTGTA | 0.987 ± 0.018
AATATTAGGT | 0.995 ± 0.023
AATATTCCAT | 1.02 ± 0.045
AATATTTTGG | 1.013 ± 0.0037
AATCAGATCG | 0.962 ± 0.018
AATCAGGACA | 0.9959 ± 0.0076
AATCATATGG | 0.969 ± 0.057
AATCATATTT | 1.02 ± 0.018
AATCATTTTG | 1 ± 0.018
AATCCGGAAC | 1.92 ± 0.023
AATCCTAGTT | 1.01 ± 0.011
AATCGAGGAG | 0.957 ± 0.053
